Data published in patent publication US20160235855A1, “STABLE AQUEOUS PARENTERAL PHARMACEUTICAL COMPOSITIONS OF INSULINOTROPIC PEPTIDES” (SHANGHAI BENEMAE PHARMACEUTICAL CORPORATION, priority 2013, published 2016).

Columns and labels:
[1] = Thioflavine T fluorescence value (gelatination, physical stability); assay type: physicochemical; conditions: 35 days
Protocol: A monitoring method for physical stability of the pH value was the fluorescence value, that is, thioflavine T was added into the sample at a final concentration of 5 μmol/L, then the fluorescence absorption value was determined (at an excitation wavelength of 435 nm, and an emission wavelength of 485 nm). The higher the absorption value is, the severer the gelatination phenomena of the sample is, and the poorer the physical stability is.

[2] = Absorption values at 360 nm (physical stability); assay type: physicochemical; conditions: for Absorption values at 360 nm: 8 days
Source text: If there was evident precipitation or turbidity, no further determination would be carried out. If the samples had no abnormal phenomena observable with the naked eye, the samples were taken and subjected to determination of absorption values at 360 nm and HPLC detection, wherein the former investigated the physical stability, and the latter investigated the chemical stability.
Absorption values determined at a wavelength of 360 nm were compared, so as to compare differences in physical stability among the samples. A higher absorption value indicated poorer physical stability.

With Glucagon-like peptide 1 [GLP-1] the Fluorescence value ([1]; pH 3.6, NaCl below 20 mmol/L, 35° C.) was 9.95, the Fluorescence value ([1]; pH 3.7, NaCl below 20 mmol/L, 25° C.) was 9.11 and the Fluorescence value ([1]; pH 3.7, NaCl below 20 mmol/L, 35° C.) was 14.55. For the same substance, the Fluorescence value ([1]; pH 3.8, NaCl below 20 mmol/L, 25° C.) was 11.01, the Fluorescence value ([1]; pH 3.8, NaCl below 20 mmol/L, 35° C.) was 31.58 and the Fluorescence value ([1]; pH 3.9, NaCl below 20 mmol/L, 25° C.) was 26.46. It also gave a Fluorescence value ([1]; pH 3.9, NaCl below 20 mmol/L, 35° C.) of 78.27, a Fluorescence value ([1]; pH 4.0, NaCl below 20 mmol/L, 25° C.) of 59.32 and a Fluorescence value ([1]; pH 4.0, NaCl below 20 mmol/L, 35° C.) of 113.18. For the same substance, the Fluorescence value ([1]; pH 4.1, NaCl below 20 mmol/L, 25° C.) was 139.48, the Fluorescence value ([1]; pH 4.1, NaCl below 20 mmol/L, 35° C.) was 157.00 and the “Absorption values at 360 nm” value ([2]; pH 3.0, NaCl 0 mg/mL, 35° C.) was 0.0706. The “Absorption values at 360 nm” value ([2]; pH 3.0, NaCl 0 mg/mL, 45° C.) was 0.0844, the “Absorption values at 360 nm” value ([2]; pH 3.0, NaCl 1.17 mg/mL, 35° C.) was 0.0716 and the “Absorption values at 360 nm” value ([2]; pH 3.0, NaCl 1.17 mg/mL, 45° C.) was 0.0724. For the same substance, the “Absorption values at 360 nm” value ([2]; pH 3.0, NaCl 8.77 mg/mL, 45° C.) was 0.1812, the “Absorption values at 360 nm” value ([2]; pH 3.0, NaCl 29.22 mg/mL, 35° C.) was 0.2052 and the “Absorption values at 360 nm” value ([2]; pH 3.0, NaCl 29.22 mg/mL, 45° C.) was 0.2417. The “Absorption values at 360 nm” value ([2]; pH 3.5, NaCl 0 mg/mL, 35° C.) was 0.0684, the “Absorption values at 360 nm” value ([2]; pH 3.5, NaCl 0 mg/mL, 45° C.) was 0.0689 and the “Absorption values at 360 nm” value ([2]; pH 3.5, NaCl 1.17 mg/mL, 35° C.) was 0.0694. The “Absorption values at 360 nm” value ([2]; pH 3.5, NaCl 1.17 mg/mL, 45° C.) was 0.0823, the “Absorption values at 360 nm” value ([2]; pH 3.5, NaCl 8.77 mg/mL, 35° C.) was 0.1882 and the “Absorption values at 360 nm” value ([2]; pH 3.5, NaCl 8.77 mg/mL, 45° C.) was 0.1780. For the same substance, the “Absorption values at 360 nm” value ([2]; pH 4.0, NaCl 0 mg/mL, 35° C.) was 0.0686, the “Absorption values at 360 nm” value ([2]; pH 4.0, NaCl 0 mg/mL, 45° C.) was 0.0843 and the “Absorption values at 360 nm” value ([2]; pH 4.0, NaCl 1.17 mg/mL, 35° C.) was 0.1354. For the same substance, the “Absorption values at 360 nm” value ([2]; pH 4.0, NaCl 1.17 mg/mL, 45° C.) was 0.1448, the “Absorption values at 360 nm” value ([2]; pH 4.0, NaCl 8.77 mg/mL, 35° C.) was 0.1907 and the “Absorption values at 360 nm” value ([2]; pH 4.0, NaCl 8.77 mg/mL, 45° C.) was 0.1974. The “Absorption values at 360 nm” value ([2]; pH 4.5, NaCl 0 mg/mL, 35° C.) was 0.1326, the “Absorption values at 360 nm” value ([2]; pH 4.5, NaCl 0 mg/mL, 45° C.) was 0.1370 and the “Absorption values at 360 nm” value ([2]; pH 4.5, NaCl 1.17 mg/mL, 35° C.) was 0.1655. For the same substance, the “Absorption values at 360 nm” value ([2]; pH 4.5, NaCl 1.17 mg/mL, 45° C.) was 0.1814, the “Absorption values at 360 nm” value ([2]; pH 7.0, NaCl 0 mg/mL, 35° C.) was 0.0813 and the “Absorption values at 360 nm” value ([2]; pH 7.0, NaCl 0 mg/mL, 45° C.) was 0.0828. For the same substance, the “Absorption values at 360 nm” value ([2]; pH 7.0, NaCl 1.17 mg/mL, 35° C.) was 0.0864, the “Absorption values at 360 nm” value ([2]; pH 7.0, NaCl 1.17 mg/mL, 45° C.) was 0.0865 and the “Absorption values at 360 nm” value ([2]; pH 7.0, NaCl 8.77 mg/mL, 35° C.) was 0.0824. For the same substance, the “Absorption values at 360 nm” value ([2]; pH 7.0, NaCl 8.77 mg/mL, 45° C.) was 0.0841, the “Absorption values at 360 nm” value ([2]; pH 7.0, NaCl 29.22 mg/mL, 35° C.) was 0.0850 and the “Absorption values at 360 nm” value ([2]; pH 7.0, NaCl 29.22 mg/mL, 45° C.) was 0.0862. For the same substance, the physical stability ([2]; pH 7.0 and 7.5) was “normal”, the “Absorption values at 360 nm” value ([2]; pH 7.5, NaCl 0 mg/mL, 35° C.) was 0.0807 and the “Absorption values at 360 nm” value ([2]; pH 7.5, NaCl 0 mg/mL, 45° C.) was 0.0859. The “Absorption values at 360 nm” value ([2]; pH 7.5, NaCl 1.17 mg/mL, 35° C.) was 0.0799, the “Absorption values at 360 nm” value ([2]; pH 7.5, NaCl 1.17 mg/mL, 45° C.) was 0.0937 and the “Absorption values at 360 nm” value ([2]; pH 7.5, NaCl 8.77 mg/mL, 35° C.) was 0.0846. The “Absorption values at 360 nm” value ([2]; pH 7.5, NaCl 8.77 mg/mL, 45° C.) was 0.0902, the “Absorption values at 360 nm” value ([2]; pH 7.5, NaCl 29.22 mg/mL, 35° C.) was 0.0861 and the “Absorption values at 360 nm” value ([2]; pH 7.5, NaCl 29.22 mg/mL, 45° C.) was 0.0942.
